For data set [1], the target named is T1, MjPSS (phosphatidyl serine synthase, PS synthase) (Methanocaldococcus jannaschii, UniProt Q58609).
T1 construct: gene pssA; tag used for MST labelling), E. coli C41(DE3) membranes, solubilised in decyl maltoside; dimer
Briefly: activity measured as a function of citrate; crystal structure ([…] Å). Particulars: reversible; reversed by more serine, blocks or competes with serine; structural site near Asn109, Lys111, Lys157, called non-specific by authors. The class given is biochemical.

For data set [2], the target named is T1, MjPSS (phosphatidyl serine synthase, PS synthase). Briefly: X-ray crystal structure (SeMet protein, […] Å); MST also shows binding. As to conditions: open state with CDP-DAG, Ca2+, Mg2+; Ser1 catalytic site, Ser2 judged artefact; in 7POW covalent to CDP-DAG in one protomer.
Substrate in the data set “purified protein”: N[C@@H](CO)C(=O)O
In words: purified protein. Particulars: co-substrate CDP-DAG, co-purified Mg2+ and Ca2+, 50 mM Tris-HCl pH 7.0, 50 mM NaCl, 0.2% DM, temperature of this assay not given.

Data set [3] concerns the molecule itself. In words: crystal structure; crystals grown in meso (lipidic cubic / sponge phase, monoolein with 2% (w/w) CDP-DAG), 292 K; two molecules in the asymmetric unit.

Take `O=C(O)CC(O)(CC(=O)O)C(=O)O` [citrate]: the inhibition result in data set [1] is “binding of citrate reversibly inhibits MjPSS, and that the inhibition is reversed by addition of more serine”.
Turning to `N[C@@H](CO)C(=O)O` [L-serine], the “X-ray crystal structure (SeMet protein, 1.85 Å); MST also shows binding” value in data set [2] is 7B1L for the open state with CDP-DAG and two serines.

B1: MjPSS (phosphatidyl serine synthase, PS synthase) (Methanocaldococcus jannaschii DSM 2661) (protein)
chain: MFSIRKIITISDYVTMLNIITGLLAILLNSFSLIYLSIIFDSLDGYVARKTGTVSDFGAELDSISDVVSFGVAPAYLLYNNFESNLALISAIIFCLCGALRLARFGILNVKGFIGLPIPAGALLLVGFCQLINSYLINSILAILIGLLMISDIKYPKYPNKIFIYIFAVSLCLAIVGIPHFALMLCLIYAIYGIIKYIRGD
As usually defined, the Km is the substrate concentration at which the rate is half of its maximum. The term kcat denotes the maximal rate divided by the concentration of active sites. In the case of B1, in “purified protein”, the Km is 460 ± 120 µM and the kcat was 0.123 ± 0.007 s⁻¹.

B2: Seleno-methionine (SeMet) MjPSS (enzyme, Methanocaldococcus jannaschii)
chain: B1 chain
modifications: selenomethionine in place of methionine
notes: phosphatidyl serine synthase (CDP-DAG alcohol O-phosphatidyl transferase, EC 2.7.8.8) of Methanocaldococcus jannaschii; same construct as m1, SeMet substituted; Same construct as m1; also called SeMet-labelled protein; SeMet substituted protein; source: E. coli, M9 minimal medium with SeMet, IPTG-induced; purified as native MjPSS (final SEC on Superdex 200 Increase)
As a reminder, the stoichiometry N is the number of molecules, sites or subunits per partner or assembly. For the molecule B2, the “stoichiometry N” value in data set [3] amounted to 2.

B3: phosphatidyl serine synthase from Methanocaldococcus jannaschii (native MjPSS) (enzyme)
chain: B1 chain
notes: phosphatidyl serine synthase (CDP-DAG alcohol O-phosphatidyl transferase, EC 2.7.8.8) of Methanocaldococcus jannaschii; the vector pSKB2LNB adds an N-terminal His6-Tag and a PreScission site; 400 protein residues are modelled for the two protomers; also called PS synthase; wild-type MjPSS; source: E. coli C41-(DE3), purified from membranes (DM-solubilised, Co2+ chelating Sepharose, size-exclusion …)
Regarding B3, the “stoichiometry N” value in data set [3] stood at 2.

Source of the values: paper PMC8633023, “Crystal structures of phosphatidyl serine synthase PSS reveal the catalytic mechanism of CDP-DAG alcohol O-phosphatidyl transferases” (Nature Communications, 2021).
